According to paper doi:10.1101/134072:
Several values for one entry are separate records, joined by “and”; a condition that tells them apart may be missing. Identical values can stand only once.

Assays:
[1] = target: T1, TDP-43 N-terminal domain (TDP-43^NTD), residues 1-80, no tags, Q13148; experiment: AUC; settings: remark: other sources report otherwise
T1 chain: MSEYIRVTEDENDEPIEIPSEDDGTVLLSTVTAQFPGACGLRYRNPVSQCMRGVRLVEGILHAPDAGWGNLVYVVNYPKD

[2] = target: T1, TDP-43 N-terminal domain (TDP-43^NTD), …; experiment: SEC; settings: remark: other sources report otherwise

percent dimer at 2-5 μM [1]: 30%
percent tetramer at 20 μM [1]: 10%
stoichiometry N [1]: 2 and 4
stoichiometry N [2]: 2 and 4
B1: TDP-43 N-terminal domain (TDP-43^NTD), residues 1-80, no tags, Q13148 1-80 (domain or fragment)
chain: T1 chain
